pKd: −log10 of the molar value.

Experiment [1] has as its target recombinant S5aΔVWA (human). The experiment is described as follows: ITC.
Experiment [2] deals with recombinant full-length S5a (human) (UniProt P55036). The experiment is described as follows: ITC. (In general: ITC needs no label: the signal is the heat of the interaction.)
Sequence of UniProt P55036 (P55036 whole entry): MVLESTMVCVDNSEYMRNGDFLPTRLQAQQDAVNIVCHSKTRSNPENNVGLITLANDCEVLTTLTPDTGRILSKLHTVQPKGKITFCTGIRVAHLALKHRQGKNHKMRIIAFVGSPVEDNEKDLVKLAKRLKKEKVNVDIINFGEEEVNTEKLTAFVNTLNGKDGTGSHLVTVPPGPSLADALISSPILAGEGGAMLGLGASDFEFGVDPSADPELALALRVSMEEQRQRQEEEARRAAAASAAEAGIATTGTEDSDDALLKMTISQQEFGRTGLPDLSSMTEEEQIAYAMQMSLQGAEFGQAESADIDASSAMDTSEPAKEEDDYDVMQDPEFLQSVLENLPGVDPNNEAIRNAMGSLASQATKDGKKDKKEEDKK

One may read the pKd as the negative decadic logarithm of the Kd, by convention in mol/L. In the case of “monoubiquitin (from UniProt P0CG47 1-76) (natural protein)”, the pKd in experiment [1] was 4.08.
“monoubiquitin (from UniProt P0CG47 1-76) (natural protein; other documents disagree on this pair)”: the pKd in experiment [2] was 3.95.

The values are drawn from PMC4263443.
